Experiments:
Test in all cases: GST co-purification from insect cells, immunoblot
[1] = biological target: T1, Full length GST-AL1 1-352 (tomato golden mosaic virus (TGMV), UniProt P03567 1-352)
T1 sequence: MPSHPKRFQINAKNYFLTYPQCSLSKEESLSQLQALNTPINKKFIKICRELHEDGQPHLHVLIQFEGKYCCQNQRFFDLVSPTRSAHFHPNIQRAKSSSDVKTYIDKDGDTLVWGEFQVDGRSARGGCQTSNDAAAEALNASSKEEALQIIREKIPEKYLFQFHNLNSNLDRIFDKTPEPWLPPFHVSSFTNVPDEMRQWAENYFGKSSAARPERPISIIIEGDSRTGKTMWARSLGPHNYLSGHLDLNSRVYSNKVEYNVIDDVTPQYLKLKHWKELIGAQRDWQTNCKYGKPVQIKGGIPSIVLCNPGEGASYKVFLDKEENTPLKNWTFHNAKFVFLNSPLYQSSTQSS

[2] = biological target: T2, GST-AL1 119-180 (tomato golden mosaic virus (TGMV), UniProt P03567 119-180)
T2 sequence: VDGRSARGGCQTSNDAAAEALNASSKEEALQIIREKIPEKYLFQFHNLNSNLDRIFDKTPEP

[3] = biological target: T3, GST-AL1(119-352) (tomato golden mosaic virus (TGMV), UniProt P03567 119-352)
T3 construct: also called N-terminal truncation of AL1 fused to GST
T3 sequence: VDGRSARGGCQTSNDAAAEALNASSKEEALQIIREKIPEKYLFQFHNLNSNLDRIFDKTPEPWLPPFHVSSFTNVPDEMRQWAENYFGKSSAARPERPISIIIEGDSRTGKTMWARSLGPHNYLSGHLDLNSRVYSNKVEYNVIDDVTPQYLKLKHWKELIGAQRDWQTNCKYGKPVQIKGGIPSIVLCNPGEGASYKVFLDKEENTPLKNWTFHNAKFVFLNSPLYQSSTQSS

[4] = biological target: T4, GST-AL1(1-180) (tomato golden mosaic virus (TGMV), UniProt P03567 1-180)
T4 construct: also called C-terminal truncation of AL1 fused to GST
T4 sequence: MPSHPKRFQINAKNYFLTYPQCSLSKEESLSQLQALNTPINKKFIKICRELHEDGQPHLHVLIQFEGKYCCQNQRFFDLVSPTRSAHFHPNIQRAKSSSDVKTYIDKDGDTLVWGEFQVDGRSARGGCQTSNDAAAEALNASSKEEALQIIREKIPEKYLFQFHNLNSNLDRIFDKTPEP

B1: AL1 EKY159 (Ala7), full length, untagged (other)
chain: MPSHPKRFQINAKNYFLTYPQCSLSKEESLSQLQALNTPINKKFIKICRELHEDGQPHLHVLIQFEGKYCCQNQRFFDLVSPTRSAHFHPNIQRAKSSSDVKTYIDKDGDTLVWGEFQVDGRSARGGCQTSNDAAAEALNASSKEEALQIIREKIPAAALFQFHNLNSNLDRIFDKTPEPWLPPFHVSSFTNVPDEMRQWAENYFGKSSAARPERPISIIIEGDSRTGKTMWARSLGPHNYLSGHLDLNSRVYSNKVEYNVIDDVTPQYLKLKHWKELIGAQRDWQTNCKYGKPVQIKGGIPSIVLCNPGEGASYKVFLDKEENTPLKNWTFHNAKFVFLNSPLYQSSTQSS
binding result [1]: binds
binding result [2]: no binding
binding result [3]: binds
binding result [4]: no binding
